According to patent US20240207433A1:

Target: human alpha-enolase protein (ENO-1) (human) (UniProt P06733)
Assay: cell-based or functional assay

Chain of UniProt P06733 (P06733 2-434): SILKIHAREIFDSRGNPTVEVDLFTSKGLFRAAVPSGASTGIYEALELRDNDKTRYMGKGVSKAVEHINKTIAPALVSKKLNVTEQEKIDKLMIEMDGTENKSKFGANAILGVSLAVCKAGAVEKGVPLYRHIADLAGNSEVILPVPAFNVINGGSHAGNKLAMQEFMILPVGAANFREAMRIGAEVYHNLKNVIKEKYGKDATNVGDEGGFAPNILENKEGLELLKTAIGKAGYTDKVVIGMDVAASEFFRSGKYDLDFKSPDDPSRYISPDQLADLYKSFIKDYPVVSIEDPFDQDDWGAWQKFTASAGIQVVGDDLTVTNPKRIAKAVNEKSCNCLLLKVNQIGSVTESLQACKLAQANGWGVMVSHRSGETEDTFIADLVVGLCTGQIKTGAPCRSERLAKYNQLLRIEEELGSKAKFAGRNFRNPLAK

Q: What does the source list for HuL001-SMCC-DM1?
A: IC50 of cytotoxicity (CCK-8), A549, IL-6: 11.2 nM; IC50 of cytotoxicity (CCK-8), A549, MCP-1: 12.1 nM; IC50 of cytotoxicity (CCK-8), A549, TGF-β: 8.2 nM; IC50 of cytotoxicity (CCK-8), A549, untreated: 56 nM; IC50 of cytotoxicity (CCK-8), DB, IL-6: 5.8 nM; IC50 of cytotoxicity (CCK-8), DB, MCP-1: 4.1 nM; IC50 of cytotoxicity (CCK-8), DB, TGF-β: 5.1 nM; IC50 of cytotoxicity (CCK-8), DB, untreated: 5.5 nM; IC50 of cytotoxicity (CCK-8), GA-10, IL-6: 26.6 nM; IC50 of cytotoxicity (CCK-8), GA-10, MCP-1: 25.6 nM; IC50 of cytotoxicity (CCK-8), GA-10, TGF-β: 22.8 nM; IC50 of cytotoxicity (CCK-8), GA-10, untreated: 37.8 nM; IC50 of cytotoxicity (CCK-8), HT, IL-6: 6.6 nM; IC50 of cytotoxicity (CCK-8), HT, MCP-1: 7.6 nM; IC50 of cytotoxicity (CCK-8), HT, TGF-β: 6.1 nM; IC50 of cytotoxicity (CCK-8), HT, untreated: 7.3 nM; IC50 of cytotoxicity (CCK-8), MCF-7, IL-6: 38.6 nM; IC50 of cytotoxicity (CCK-8), MCF-7, MCP-1: 36.2 nM; IC50 of cytotoxicity (CCK-8), MCF-7, TGF-β: 53.5 nM; IC50 of cytotoxicity (CCK-8), MCF-7, untreated: 74.9 nM; IC50 of cytotoxicity (CCK-8), MDA-MB-175, IL-6: 45.1 nM; IC50 of cytotoxicity (CCK-8), MDA-MB-175, MCP-1: 40.5 nM; IC50 of cytotoxicity (CCK-8), MDA-MB-175, TGF-β: 38.3 nM; IC50 of cytotoxicity (CCK-8), MDA-MB-175, untreated: 76.4 nM; IC50 of cytotoxicity (CCK-8), MDA-MB-231, IL-6: 34.6 nM; IC50 of cytotoxicity (CCK-8), MDA-MB-231, MCP-1: 22.4 nM; IC50 of cytotoxicity (CCK-8), MDA-MB-231, TGF-β: 24.2 nM; IC50 of cytotoxicity (CCK-8), MDA-MB-231, untreated: 69 nM; IC50 of cytotoxicity (CCK-8), MDA-MB-453, IL-6: 22.8 nM; IC50 of cytotoxicity (CCK-8), MDA-MB-453, MCP-1: 24.7 nM; IC50 of cytotoxicity (CCK-8), MDA-MB-453, TGF-β: 16.6 nM; IC50 of cytotoxicity (CCK-8), MDA-MB-453, untreated: 39.8 nM; IC50 of cytotoxicity (CCK-8), PANC-1, IL-6: 134 nM; IC50 of cytotoxicity (CCK-8), PANC-1, MCP-1: 110 nM; IC50 of cytotoxicity (CCK-8), PANC-1, TGF-β: 116 nM; IC50 of cytotoxicity (CCK-8), PANC-1, untreated: 174 nM; IC50 of cytotoxicity (CCK-8), Raji, IL-6: 17.1 nM; IC50 of cytotoxicity (CCK-8), Raji, MCP-1: 21.7 nM; IC50 of cytotoxicity (CCK-8), Raji, TGF-β: 18.6 nM; IC50 of cytotoxicity (CCK-8), Raji, untreated: 32.2 nM; IC50 of cytotoxicity (CCK-8), SU-DHL-4, IL-6: 8.3 nM; IC50 of cytotoxicity (CCK-8), SU-DHL-4, MCP-1: 7.6 nM; IC50 of cytotoxicity (CCK-8), SU-DHL-4, TGF-β: 7.4 nM; IC50 of cytotoxicity (CCK-8), SU-DHL-4, untreated: 7.65 nM; IC50 of cytotoxicity (CCK-8), Toledo, IL-6: 11.4 nM; IC50 of cytotoxicity (CCK-8), Toledo, MCP-1: 8.1 nM; IC50 of cytotoxicity (CCK-8), Toledo, TGF-β: 9.8 nM; IC50 of cytotoxicity (CCK-8), Toledo, untreated: 8 nM; IC50 of cytotoxicity (CCK-8), U937, IL-6: 7.1 nM; IC50 of cytotoxicity (CCK-8), U937, MCP-1: 9.7 nM; IC50 of cytotoxicity (CCK-8), U937, TGF-β: 7.5 nM; IC50 of cytotoxicity (CCK-8), U937, untreated: 75 nM
